Data set [1] concerns the target ATL2 (6His-tagged cytoplasmic / soluble domain, ATL2 1–467) (Homo sapiens, UniProt Q8NHH9). The experiment in a line: SEC dimer shift. The class given is binding. The conditions noted are these: 2 mM GMPPNP (SEC, cross-linking) or 1 mM (EM); 30 min RT.
Substrate in data set [2]: Nc1nc2c(ncn2[C@@H]2O[C@H](COP(=O)(O)OP(=O)(O)OP(=O)(O)O)[C@@H](O)[C@H]2O)c(=O)[nH]1
The experiment in a line: malachite green phosphate release, Lineweaver-Burk. The conditions noted are these: 1 µM enzyme, 5, 10, 20 µM GTP, 37 °C. The class given is biochemical, Homo sapiens.

Here are results for three molecules from publication PMC3257528 (The Journal of Cell Biology, 2011).

Consider `Nc1nc2c(ncn2[C@@H]2O[C@H](COP(=O)(O)OP(=O)(O)NP(=O)(O)O)[C@@H](O)[C@H]2O)c(=O)[nH]1` [GMPPNP, guanosine 5′-[β,γ-imido]triphosphate], for which, in data set [1], the “SEC dimer shift (Superdex 200), BMOE cross-linking, negative-stain EM” value is on record as “wild-type ATL2 formed dimers in the presence, but not in the absence, of GMPPNP”.

B1: ATL2 (6His-tagged cytoplasmic / soluble domain, ATL2 1–467) (Homo sapiens) (protein)
chain: MAEGDEAARGQQPHQGLWRRRRTSDPSAAVNHVSSTTSLGENYEDDDLVNSDEVMKKPCPVQIVLAHEDDHNFELDEEALEQILLQEHIRDLNIVVVSVAGAFRKGKSFLLDFMLRYMYNKDSQSWIGGNNEPLTGFTWRGGCERETTGIQVWNEVFVIDRPNGTKVAVLLMDTQGAFDSQSTIKDCATVFALSTMTSSVQVYNLSQNIQEDDLQHLQLFTEYGRLAMEEIYQKPFQTLMFLIRDWSYPYEHSYGLEGGKQFLEKRLQVKQNQHEELQNVRKHIHNCFSNLGCFLLPHPGLKVATNPSFDGRLKDIDEDFKRELRNLVPLLLAPENLVEKEISGSKVTCRDLVEYFKAYIKIYQGEELPHPKSMLQATAEANNLAAVAGARDTYCKSMEQVCGGDKPYIAPSDLERKHLDLKEVAIKQFRSVKKMGGDEFCRRYQDQLEAEIEETYANFIKHNDGKN
On to B1, for which the Km in data set [2] amounted to 34 µM.

B2: ATL2 (6His-tagged cytoplasmic / soluble domain, ATL2 1–467) (Homo sapiens; E380R/K372E) (protein)
chain: MAEGDEAARGQQPHQGLWRRRRTSDPSAAVNHVSSTTSLGENYEDDDLVNSDEVMKKPCPVQIVLAHEDDHNFELDEEALEQILLQEHIRDLNIVVVSVAGAFRKGKSFLLDFMLRYMYNKDSQSWIGGNNEPLTGFTWRGGCERETTGIQVWNEVFVIDRPNGTKVAVLLMDTQGAFDSQSTIKDCATVFALSTMTSSVQVYNLSQNIQEDDLQHLQLFTEYGRLAMEEIYQKPFQTLMFLIRDWSYPYEHSYGLEGGKQFLEKRLQVKQNQHEELQNVRKHIHNCFSNLGCFLLPHPGLKVATNPSFDGRLKDIDEDFKRELRNLVPLLLAPENLVEKEISGSKVTCRDLVEYFKAYIKIYQGEELPHPESMLQATARANNLAAVAGARDTYCKSMEQVCGGDKPYIAPSDLERKHLDLKEVAIKQFRSVKKMGGDEFCRRYQDQLEAEIEETYANFIKHNDGKN
Regarding B2, the Km in data set [2] was determined as 44 µM.
